Test: yeast display, Sf9 membrane polyspecificity reagent, FACS + sequencing; frameworks hold sequencing errors
Method in brief: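 Nanobodies from a synthetic yeast display library (Saccharomyces cerevisiae BJ5465), induced 36–48 hours with galactose, were stained 1 hour at 4 °C with 10% biotinylated, detergent-solubilized Sf9 membrane reagent, enriched on streptavidin microbeads, then FACS-sorted. Anti-HA (expression) and streptavidin (reagent binding) fluorescence set low and high (top ~1%) gates. Polyreactivity labels come from the gate of origin. Genes were colony-PCR amplified, MiSeq 2 × 250 sequenced and filtered by CDR length.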

| Sequence | polyreactivity (PSR sort gate) |
| --- | --- |
| QVQLVESGGGLVQAGGSLRLSCAASGITFSRNGMGWYRQAPGKERELVAAISTSGDSTDYADSVKGRFTISRDNAKNTVYLQMNSLKPEDTAVYYCAASYAFLYYGYDSWGQGTQVTVSS | low polyreactivity |
| QVQLVESGGGLVQAGGSLRLSCAASGSTFWTNAMGWNRQAPGKERELVATITYSTGTYADSVKGRFTISRDNAKNTVYLQMNSLKPEDTAVYYCAATGVPGWVGFDYWGQGTQVSVSS | low polyreactivity |
| QVQLVESGAGLVQAGGSLRFSCAASGSIFDHYVMGWYRQAPGKEREFVAAIPSGDRTNYADSVKGRFTISRDNANNTVYLQMNSLKPEDTAVYYCNADYQYYFYYTTCYYDYDYWGQGTPVTVSS | low polyreactivity |
| QVQLVESGGGLVQAGGSLRLSCAASGFIFRRYAMGWYRQAPGKERELVAAITRSGGSTYYADSVKGRFTISRDNAMNTVYLQMNSLKPEDTAVYYCNARYARVVPRYYYWGQGTQVTVSS | high polyreactivity |
| QVHLVESGGVLVQAGGSLRLSCAASGRIFYRYAMGWYRQAPGKERELVAAITHRGGSTYYADSVKGRFTISRDNAKNTVYLQMNSLKPEDTAVYYCAGRITEAVADYVGHKPYDYWGQGTQVTVSS | low polyreactivity |
| QVQLVESGGGLVQAGGSLRLSCAASGFTFRYYAMGWYRQAPGKERELVATISRGGSTNYVDSVKGRFTISRDNAKNTVYLQMNRLKPEDPAVYSCNARYKGWWVSTDSSTDDYWGQGTQVTVSS | high polyreactivity |
| QVQLEDSGGGLVQAGGTLRLSCAASGIIFAYNYMGWNRHATRKERELVATISSAGNTNYADSVKGRFTISRDNAKNTVYLQMNSLKPEETAVYYCAAEFFIVVTDEYDYWGQGTQVTVSS | low polyreactivity |
| QVQLVESGGGLVQAGGSLRLSCAPSGIIFIRYAMGWYRQAPGKERELVAAISWRGGSTYYADSVKGRFTISRDNAKNTVYLQMNSLKPEDTAVYYCAAGYFSYRRYDYWGQGTQVTVSS | high polyreactivity |
| QVQLVESGGGLVQAGGSLRFSCAASGSTFAYNDMGWYRQAPGKERELVADIRSGGNTNYADSVKGRFTISRDNAKNTVYFQMNSLKPEDTAVYYCATDGYRIDVYHPDYRYDYWGQGTQVTVSS | low polyreactivity |
| HLQLEESGVGLVQAGGSLRLSCAASGSTFTFNAMGWYRQAPAKSRELVAAIRWNGESTYYADSVKGRFSISRDNAKNTVYIQMNSLNPEDTAVYYCAATRLLSKSGDRYYYWGQGTQVTVSS | low polyreactivity |
| QVQLVESGGGLVQAGGSLRLSCAASGRTFKIYAMGWYRQAPGKERELVAAITWNGDSTHYADSVKGRFTISRDNAKNTVYLQMNSLKPEDTAVYYCNRVGYQSMNYWGQGTQVTVSS | low polyreactivity |
| QVQLVESGGGLVQAGGSLRLSCASSGRTFTYYTMGWYRQAPGKERELVAAISSSGGSTYYADSVKGRFTISRDNAKNTVYLQMNSLKPEDTAVYYCAAVRGRLLPPYGYWGQGTQVTVSS | high polyreactivity |
| QVQLVESGGGLVQAGGSLRLSCAASGFTFNYAMGWYRQAPGKERELVAAISSAGTTYYADSVKGRFTISRDNAKNTVYLQMNSLKPEDTAVYYCAALARPKQDRYRYYYWGQGTQVTVSS | high polyreactivity |
| QVQLVESGGGLVQEGGSLRLICAASGRTFYKNAMGWYRPAPAKERELVAAISSRGGRTTYADSLKGRYTISRDNAKNTVYLQMNSLKTEDTAVYYCAADWEYDYWGQGTHVTVSS | high polyreactivity |
| QVQRVESGGGLVQAVGSLRLSCPASGIISVCNARGWYRQAPGKERELVASINSGGSTNYADSVKGRFTISRDNAKNTVYLQMNSLKPEDTAVYYCARLHDIRSPYSGTPVRDLPDEDDYWGQGTQVTVSS | low polyreactivity |
| QVQLVESGGGLVQAGGSLRLSCAASGSTSRYNAMGWYRQAPGKERELVARINSGGTTNYADSVKGRFTISRDNAKNTVYLQMNSLKPEDTAVYYCNAYYYFWGQGTQVTVSS | low polyreactivity |
| QVQLVESGGGLVQAGGSLRLSCAASGNIFQGNAMGWYRQAPGKERELVAAITSDGSTYADSVKGRFTISRDNAKNTVYLQMNSLKPEETAVYYCNADCITSLPVPALDYWGQGTQVTVSS | low polyreactivity |
| QVQLVESGGGLVQAGGSLRLSCAASGITLTKNAMGWYSQAPGKERELVAGITRGSRTNYADSVKGRFTISRDNAKNTVYLQMNSLKPEDTAVYYCAASYWPYRGPVGGSKMYYWGQGTQVTVSS | high polyreactivity |
| QVQLVESGGGLVQAGGSLRLSCAAYGSTFPSYAMGSNRQAPGKERELVAAISWTGGTTYFADSVKGRFTISRDNAKNTVYLQMNSLKPEDTAVYYCNAKDGGGSQDQAQKRPIIRFDYWGQGSQVTVSS | high polyreactivity |
| QGQLVESGGGLVQAGGSLRLSCAASGSIFYYNDMGWYRQAPGKEWELVATITNGGGTNYADSVKGRFTISRDNAKYTVYLQMNSLKPEDTAVYYCAADLWPTVTASGDLIVKFDYWGQGTQVTVSS | low polyreactivity |
| QVQLVESGGGLVQAGGSLRLSCAASGSTFLYYAMGWYRQAPGKERELVASITRRGGRTYYADSVKGRFTISRDNAKNTVYLQMNSLKPVDTAVYYCNAVYGRQYRGYNYKFFYWGQGTQVTVSS | high polyreactivity |
| QVQLVESGGGLVQAGGSHRLSCAASGSTLTWYAMGWYRQAPWKEWELVDTISSSTGSTRYADSVKGRFTISRDNAKNSVYLRINSLKPDDTAVYYCAKAYALRYARGRARYDYDFWGQGTQVNVSS | low polyreactivity |

| Sequence | polyreactivity (PSR sort gate) |
| --- | --- |
| QVQLVESGGGLVQAGGSLRLSCAASGSIFRGYVMGWYRQAPGKERELVAAIRWRGGDTRYADSVKGRFTISRDNAKNTVYLQMNSLKPEDTAVYYCAAQYRKTQYQKKYDYWGQGTQVTVSS | high polyreactivity |
| QVQLVESGGGLVQAGGSLRLSCAASGFTFYYNAMGWYRQAPGKERELVAAISTRGGNTYYADSVKGRFTISRDNAKNTVYLQMNSLKPEDTAVYYCARKIRREGRYDYWGQGTQVTVSS | high polyreactivity |
| QAQLQESGGSLVQAGGGLRLSCAASGYISVGSVMGWYRQAPSKERELVASIDQGANTNYADSVKGRFTISRDNAKNNVYLQMNSLKPEDTAVYYCATVTTYILNYWGQGTQVTVCS | low polyreactivity |
| QVQLVESGGGLVQAGGSLRLSCAASGSIFYRYAMGWYRQAPGKERELVAAITQSTDSTYYADSVKGRFTISRDNAKNTVYLQMNSLKPEDSAVYYCDAYLVYYRPYAYGYWGQGTQVTVSS | low polyreactivity |
| QVQLVESGGGLVQAGGSLRLSCAASGFTFGSNAMGWYRQAPGKERELVATISRRGGRTYYADSVKGRFTISRDNAKNTVYLQMNSLKPEDTAVYYCAAYLRPGGNYYWGQGTQVTVSS | high polyreactivity |
| QVQLVESGGGLVQAGGSLRLSCAASGRIFQRYTMGWYRQAPGKEREFVAAITYSGGSTHYADSVKRRFTISRDNAKYTVYLQMNSLKPEDTAVYSCNARTSVLHDYWGQGTQVTVSS | low polyreactivity |
| QVQLVESGGGLVQAGGSLRLSCAASGSTFYYYVRGWYRQAPGKERELVAAINSGGSTYYADSVKGRFTISRDNAKNTVYLQMNSLKPEDTAVYYCAKSWSYWYQYYYWGQGSQVTVSS | low polyreactivity |
| QVQLVESGGGLVQAGGSLRLSFAASGRIFTYYAMGWYRQAPGKERELVASISRSGGNTYYADSVKGRFTISRDNAKNTVYLQMNSLKPEDTAVYYCAAVYSRLDYWGQGTQVTVSS | high polyreactivity |
| QVQLVESGGGLVQAGGSLRLSCAASGFIFVVYAMGWYRQAPGKERELVATISSGGGTYYADSVKGRFTISRDNAKNSVYFQMNSLKPEDTAVYYCAARRSRLYHFGGNNYWGQGTQVTVSS | high polyreactivity |
| QVQLVESGGGLVQAGGSLRLSCAASGSIFGDYAMGWYRQAPGKERELVADISSGGSTTYADSVKGRFTISRDNAKNTVYLQMNSLKPEDTAVYYCNAERGVPYGYWGQGTQVTVSS | low polyreactivity |
| QVQLVESGGGLVQAGGSLRLSCAASGSIFGWYAMRSYRQAPGKATELVASISGSGGSTYYADSVKGRFTISRDNAKNTVYLQMNSLKPEDTAVYYCAADYALSSLPFDYWGQGTQVTVSS | high polyreactivity |
| QFQLVESGGGLVQAGGSVRLSCAASGSTFYLYAMGWYRQAPGKERELVAAITYGGGSTYYADSVKGRFTISRDNAKNTVYLQMNSLKPEDTAVYYCAARWLYWPRYNSLVYTHRDSWGQGTQVTVSS | low polyreactivity |
| QVQLVESGGGLVQAGGSLRLSCAASGFTFYRYAMGWYRQAPGKERELVAAISKRGGNTYYADSVKGRFTISRDNAKNTVYLQMNSLKPEDTAVYYCAADFATWDAKPYDYWGQGTQVTVSS | high polyreactivity |
| QVQLVESGGGLVQAGGSLRLSCAASGSIFYTYVMGWYRQAPGKERELVAAISGTGGRTYYADSVKGRFTISRDNAKNTVYLQMTSLKPEDTAVYYCATRAYHKGFYRITYYYWGQGTQVTVSS | high polyreactivity |
| QVQLVESGGGLVQAGGSLRLSCAASGRIFVGNAMGWYRQAPGKERELVAAITRSGSRTYYADSVKGRFTISRDNAKNTVYLQMISLKPEDTAVYYCNAPIRTWPGYDYWGQGTQVTVSS | high polyreactivity |
| QVQLVESGGGIVQAGGSLRLSCAASGSTFDSYAMGWYRQAPGKERELVATISWTGSSTYYADSVKGRFTISRDNAKNTVYLQMNSLKPADTAVYYCATDQYYEYDYWGQGTQVTVSS | low polyreactivity |
| QVQLEESGGGLVQAGGSLRLSCAASGRTFVFNAMGWYRQAPGTERELVASINSRVGSTYYADSVKGRFTISRDNAKNTVYLQMNSLKPEDTAVYYCAARSYSSYYYWGQGTQVTVSS | high polyreactivity |
| QVQLVESGGGLVQAGGSLRLSCAASGSIFYPYTMGWYRQAPGKEREFVAAITGGGGRTYYADSVKGRFTISRDNAKNTVYLQMNSLKPEDTAVYYCATDTYDVNVWELGMDYWGQGTQVTVSS | low polyreactivity |
| QVQLVESGGGLVQAGGSLRLSCAASGRILASYAMGWYRQAPGKERELVAAIRYRGSTSYADSVKGRFTISRDNAKNTVYLQMNSLKPEDTAVYYCNAGLEYYYWGYTWEFDYWGQGTQVTVSS | low polyreactivity |
| QVQLVESGGGLVQAGGSLRLSCAASGITFLPYAMGWYRPAPGKERELVAAITRGGGSTYADSVKGRFTISRDNAKNTVYLQMNSLKPEDTAVYYCAKRYGRVSWYEDYDYWGQGTQVTVSS | low polyreactivity |
| QVQLVESGGGLVQGGGSLRLSCAASGRTFAPNAMGWYRQAPGKERELVAAISYNSGTTYYADSVKGRFTISRDNAKNTVYLQMNSLKPEDTAVYYCAAGHWVGPYQAMEYWGQGTQVTVSS | high polyreactivity |
